Measurements reported in PMC11957393.

Target: chicken MyD88, full length, Flag-tagged (Flag-MyD88), expressed in HEK293T cells (chicken) (UniProt A5HNF6)
Experiment: co-IP; HEK293T cells co-transfected with the indicated plasmids (2 ug/1x10^6 cells), harvested at 30 h; NP-40 lysis buffer; immunoprecipitated by the Flag tag, blotted for HA and Flag tags

Chain of UniProt A5HNF6 (A5HNF6 whole entry): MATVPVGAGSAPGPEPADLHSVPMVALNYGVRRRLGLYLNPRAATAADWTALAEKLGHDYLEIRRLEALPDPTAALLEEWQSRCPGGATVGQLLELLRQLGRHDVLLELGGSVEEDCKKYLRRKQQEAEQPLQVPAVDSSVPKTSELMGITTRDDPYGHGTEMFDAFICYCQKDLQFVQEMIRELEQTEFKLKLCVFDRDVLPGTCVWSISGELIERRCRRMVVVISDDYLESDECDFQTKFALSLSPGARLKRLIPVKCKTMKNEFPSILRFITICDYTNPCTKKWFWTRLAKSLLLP

In the case of “VP2-HT: IBDV VP2 with the double mutation Q253H/A284T (VP2 of the rescued HT strain), expressed in HEK293T cells (natural protein)”, the fold decrease of interaction compared to VP2 is reported as 2.9 fold.
